Measured values taken from patent publication US20140213513A1 (Sanofi, priority 2012, published 2014).
*1 amine or outer side, *2 acyl side, *3 side chain or, on linkers, in order; H or OH if unused. Where a SMILES comes first, the peptide text is derived from it. Where no end group is shown, it is not given here. Side-chain parts run from the residue outwards. [ ]: non-standard residue; d: D form. The star is where a group is joined. γGlu = O=C(O)[C@H](CCC(=O)[*:2])N[*:1]; Palmitoyl = CCCCCCCCCCCCCCCC(=O)*; Aib = CC(C)(N)C(=O)O

T1: human GIP receptor (human, UniProt P48546 22-466)
T1 sequence (looked up): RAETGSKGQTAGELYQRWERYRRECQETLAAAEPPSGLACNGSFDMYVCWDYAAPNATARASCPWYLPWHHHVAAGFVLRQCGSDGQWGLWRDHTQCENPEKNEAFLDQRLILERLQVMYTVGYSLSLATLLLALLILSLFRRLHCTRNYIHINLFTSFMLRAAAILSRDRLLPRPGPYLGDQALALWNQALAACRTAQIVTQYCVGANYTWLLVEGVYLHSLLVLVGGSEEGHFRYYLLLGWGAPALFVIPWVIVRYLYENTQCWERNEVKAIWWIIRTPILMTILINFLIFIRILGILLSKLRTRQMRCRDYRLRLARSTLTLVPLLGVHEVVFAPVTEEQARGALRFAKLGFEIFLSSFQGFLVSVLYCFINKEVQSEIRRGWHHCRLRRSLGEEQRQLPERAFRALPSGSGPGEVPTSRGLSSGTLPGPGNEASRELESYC


Columns and labels:
[1] = target: T2, human glucagon receptor (hGLUC R) (Homo sapiens, UniProt P47871); test: cAMP response of HEK-293 cells stably expressing human glucagon receptor (HTRF); assay type: cell-based; conditions: Table 7; cAMP formation
T2 construct: expressed in transfected cells
Procedure: (§1) cAMP content of cells was determined using a kit from Cisbio Corp. (cat. no. 62AM4PEC) based on HTRF (Homogenous Time Resolved Fluorescence). For preparation, cells were split into T175 culture flasks and grown overnight to near confluency in medium (DMEM/10% FBS). Medium was then removed and cells washed with PBS lacking calcium and magnesium, followed by proteinase treatment with accutase (Sigma-Aldrich cat. no. A6964). Detached cells were washed and resuspended in assay buffer (1×HBSS; 20 mM HEPES, 0.1% BSA, 2 mM IBMX) and cellular density determined. They were then diluted to 400000 cells/ml and 25 μl-aliquots dispensed into the wells of 96-well plates. For measurement, 25 μl of test compound in assay buffer was added to the wells, followed by incubation for 30 minutes at room temperature.

[2] = target: T3, human GLP-1 receptor (hGLP-1 R) (Homo sapiens, UniProt P43220); test: cAMP response of HEK-293 cells stably expressing human GLP-1 receptor (HTRF); assay type: cell-based; conditions: Table 7; cAMP formation
T3 construct: expressed in transfected cells
Procedure: as §1

[3] = target: T1, human GIP receptor; test: cell-based or functional assay
[4] = target: human glucagon receptor (human, UniProt P47871 26-477); test: cell-based or functional assay
[5] = target: human GLP-1 receptor (human, UniProt P43220 24-463); test: cell-based or functional assay

T3 sequence (P43220 24-463): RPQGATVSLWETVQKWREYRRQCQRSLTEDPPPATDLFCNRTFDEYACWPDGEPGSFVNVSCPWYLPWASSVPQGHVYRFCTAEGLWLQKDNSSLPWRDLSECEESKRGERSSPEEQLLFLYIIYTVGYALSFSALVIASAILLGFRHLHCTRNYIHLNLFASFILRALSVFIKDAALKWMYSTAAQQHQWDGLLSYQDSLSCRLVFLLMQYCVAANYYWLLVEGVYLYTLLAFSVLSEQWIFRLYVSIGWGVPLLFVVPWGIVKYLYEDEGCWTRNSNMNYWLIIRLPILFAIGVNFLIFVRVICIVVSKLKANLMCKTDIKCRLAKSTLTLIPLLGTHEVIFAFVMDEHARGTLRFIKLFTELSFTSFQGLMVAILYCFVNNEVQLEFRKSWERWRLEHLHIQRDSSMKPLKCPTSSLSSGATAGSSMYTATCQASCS
human glucagon receptor, sequence (P47871 26-477): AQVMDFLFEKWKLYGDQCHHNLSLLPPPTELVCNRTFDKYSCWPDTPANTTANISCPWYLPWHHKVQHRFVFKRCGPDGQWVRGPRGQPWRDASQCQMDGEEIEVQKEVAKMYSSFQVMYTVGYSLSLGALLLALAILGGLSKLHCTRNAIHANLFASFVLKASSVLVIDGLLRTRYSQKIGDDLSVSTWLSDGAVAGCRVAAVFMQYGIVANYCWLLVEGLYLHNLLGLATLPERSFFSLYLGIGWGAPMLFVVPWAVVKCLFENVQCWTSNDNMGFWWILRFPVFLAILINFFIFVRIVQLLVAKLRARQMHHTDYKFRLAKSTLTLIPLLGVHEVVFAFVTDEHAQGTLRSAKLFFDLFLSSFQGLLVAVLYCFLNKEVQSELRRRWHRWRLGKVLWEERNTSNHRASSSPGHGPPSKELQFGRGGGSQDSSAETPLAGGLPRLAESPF
T2 sequence (P47871 26-477): as above

| Molecule | EC50 [1] [nM] | EC50 [2] [nM] | EC50 hGIP R [3] [nM] | EC50 hGLUC R [4] [nM] | EC50 hGLP-1 R [5] [nM] |
| --- | --- | --- | --- | --- | --- |
| CCCCCCCCCCCCCCCC(=O)N[C@@H](CCC(=O)NCCCC[C@H](NC(=O)[C@H](CCC(N)=O)NC(=O)[C@@H](NC(=O)[C@H](CO)NC(=O)[C@H](CC(C)C)NC(=O)[C@H](CC(=O)O)NC(=O)[C@H](CO)NC(=O)[C@@H](NC(=O)[C@H](Cc1ccccc1)NC(=O)[C@@H](NC(=O)CNC(=O)[C@H](CCC(=O)O)NC(=O)C(C)(C)NC(=O)[C@@H](N)Cc1ccc(O)cc1)[C@@H](C)O)[C@@H](C)O)[C@@H](C)CC)C(=O)N[C@@H](CC(=O)O)C(=O)N[C@@H](CCCCN)C(=O)N[C@@H](CCCNC(=N)N)C(=O)N[C@@H](CCCCN)C(=O)N[C@@H](C)C(=O)N[C@@H](CCC(N)=O)C(=O)N[C@@H](CC(=O)O)C(=O)N[C@@H](Cc1ccccc1)C(=O)N[C@H](C(=O)N[C@@H](CCC(=O)O)C(=O)N[C@@H](Cc1c[nH]c2ccccc12)C(=O)N[C@@H](CC(C)C)C(=O)N[C@@H](CCCCN)C(=O)N[C@@H](CC(N)=O)C(=O)NCC(=O)NCC(=O)N1CCC[C@H]1C(=O)N[C@@H](CO)C(=O)N[C@@H](CO)C(=O)NCC(=O)N[C@@H](C)C(=O)N1CCC[C@H]1C(=O)N1CCC[C@H]1C(=O)N1CCC[C@H]1C(=O)N[C@@H](CO)C(N)=O)[C@@H](C)CC)C(=O)O [SEQ ID NO: 54, Y-Aib-E-G-T-F-T-S-D-L-S-I-Q-K(yE-x53)-DKRKAQDFIEWLKNGGPSSGAPPPS-NH2] (H-Y[Aib]EGTFTSDLSIQK([γGlu-Palmitoyl])DKRKAQDFIEWLKNGGPSSGAPPPS-NH2) | 2.62 | 0.0668 |  |  |  |
| Y[Aib]EGTFTSDLSIQK([γGlu-Palmitoyl])EERAAHEFIEWLKR[Aib]GPSSGAPPPS-NH2 (N-terminus assumed; SMILES CCCCCCCCCCCCCCCC(=O)N[C@@H](CCC(=O)NCCCC[C@H](NC(=O)[C@H](CCC(N)=O)NC(=O)[C@@H](NC(=O)[C@H](CO)NC(=O)[C@H](CC(C)C)NC(=O)[C@H](CC(=O)O)NC(=O)[C@H](CO)NC(=O)[C@@H](NC(=O)[C@H](Cc1ccccc1)NC(=O)[C@@H](NC(=O)CNC(=O)[C@H](CCC(=O)O)NC(=O)C(C)(C)NC(=O)[C@@H](N)Cc1ccc(O)cc1)[C@@H](C)O)[C@@H](C)O)[C@@H](C)CC)C(=O)N[C@@H](CCC(=O)O)C(=O)N[C@@H](CCC(=O)O)C(=O)N[C@@H](CCCNC(=N)N)C(=O)N[C@@H](C)C(=O)N[C@@H](C)C(=O)N[C@@H](Cc1c[nH]cn1)C(=O)N[C@@H](CCC(=O)O)C(=O)N[C@@H](Cc1ccccc1)C(=O)N[C@H](C(=O)N[C@@H](CCC(=O)O)C(=O)N[C@@H](Cc1c[nH]c2ccccc12)C(=O)N[C@@H](CC(C)C)C(=O)N[C@@H](CCCCN)C(=O)N[C@@H](CCCNC(=N)N)C(=O)NC(C)(C)C(=O)NCC(=O)N1CCC[C@H]1C(=O)N[C@@H](CO)C(=O)N[C@@H](CO)C(=O)NCC(=O)N[C@@H](C)C(=O)N1CCC[C@H]1C(=O)N1CCC[C@H]1C(=O)N1CCC[C@H]1C(=O)N[C@@H](CO)C(N)=O)[C@@H](C)CC)C(=O)O) [exendin-4 peptide analogue SEQ ID NO: 37] |  |  | 0.0121 | 12.1 | 0.0066 |
